From publication PMC6197822 come the findings set out here.

The test deals with Thr315Ala variant of the catalytic domain of ICR^Mc (ICR^Mccat^Thr315Ala) (Moraxella catarrhalis strain BC1). The test is described as follows: crystal structure.

Take “Thr315Ala variant of the catalytic domain of ICR^Mc (ICR^Mccat^Thr315Ala) (domain or fragment)”: the stoichiometry N (as a rule, the number of molecules, sites or subunits per partner or assembly) is 2.
